Assay results as given in patent publication US12539335B2, “Tricyclic polypeptide conjugated drug and use thereof” (CONJUSTAR (ZHUHAI) BIOLOGICS CO., LTD., priority 2021, dated 2026).
Structures can show the parent of a compound that is named as a salt. Starred links: 1 amine or outer side, 2 acyl side, 3 side chain; linkers in the order of their positions; H or OH if unused. Positions of bridges follow the written chain, without caps; N, C: chain ends. Non-standard residues stand in square brackets, D forms with d. Residues, ends and D or L forms follow the SMILES beside them. Chains are numbered I, II in the order given. *: point of attachment. TATA = O=C(CC[*:1])N1CN(C(=O)CC[*:2])CN(C(=O)CC[*:3])C1; Dolaproine = CO[C@@H]([C@@H]1CCCN1)[C@@H](C)C(=O)O; Dil = CC[C@H](C)[C@H](NC)[C@@H](CC(=O)O)OC; 1Nal = N[C@@H](Cc1cccc2ccccc12)C(=O)O; X2 = O=C(CCCC(=O)[*:2])NCCC(=O)[*:1]; PABC = O=C(OCc1ccc(N[*:1])cc1)[*:2]; X1 = C[C@@H](N*)[C@@H](O)c1ccccc1; Hyp = O=C(O)[C@@H]1C[C@@H](O)CN1; hArg = N=C(N)NCCCC[C@H](N)C(=O)O; Cit = NC(=O)NCCC[C@H](N)C(=O)O; Pen = CC(C)(S)[C@H](N)C(=O)O; NMeV = CN[C@H](C(=O)O)C(C)C; Sar = CNCC(=O)O

Assays:
[1] = Pharmacokinetic analysis in rat plasma; type: in vivo, SD rats; conditions: Sprague-Dawley (SD), rat, SD rats, single IV 3 mg/kg, plasma
Procedure: Test Example 5: Pharmacokinetic Analysis of the Compounds of the Present Invention in Rat Plasma
To test the pharmacokinetics of the compounds of the present invention in SD rats.
The pharmacokinetic characteristics of the compound after intravenous injection were tested in rats according to a standard protocol. The compound to be tested was formulated into a clear solution using 25 mM L-histidine (pH=7) in 10% sucrose as a vehicle. Two rats were given a single intravenous injection of 3 mg/kg of the compound to be tested. Whole blood was collected at time points of 0.083, 0.25, 0.5, 1, 2, 4, 8, and 24 hours after administration to get plasma. The concentration of the compound of the present invention and the concentration of its potential metabolite MMAE were analyzed by the LC-MS/MS method, and the pharmacokinetic parameters were calculated by Phoenix WinNonlin software.

[2] = Metabolic stability in kidney S9, SD rats; type: in vitro ADME; conditions: Sprague-Dawley (SD), rat
Procedure: (§1) Test Example 8: Metabolic Stability of the Compounds of the Present Invention in Kidney S9 from Mice, Rats, Cynomolgus Macaques, and Humans
(§2) To investigate the metabolic stability of the compounds of the present invention in kidney S9 from mice, rats, Cynomolgus macaques, and humans.
(§3) Materials: Kidney S9 from CD-1 mice, SD rats, Cynomolgus macaques, and humans were purchased from BioIVT or XenoTech LLC and stored in a −80° C. refrigerator.
(§4) Experimental procedure: Eight 96-well plates, designated T0, T5, T15, T30, T45, T60, Blank, and NCF60, were prepared. The first six incubation plates corresponded to reaction time points of 0, 5, 15, 30, 45, and 60 minutes, respectively. No test sample or control compound was added to the Blank plate.
(§5) The T0, T5, T15, T30, T45, and T60 plates were added with a 2 μL working solution of the test sample (10 mM of a solution of the compound to be tested in DMSO, diluted to 100 μM with 100% acetonitrile) and 100 μL of a S9 working solution (kidney S9 protein concentration of 1.0 mg/mL), and the Blank plate was only added with the S9 working solution. The above incubation plates were then placed in a 37° C. water bath for pre-incubation for about 10 minutes.
(§6) At the end of the pre-incubation, 98 μL of an auxiliary enzyme working solution was added to each sample well except the TO plate to start the reaction. […]

[3] = Metabolic stability in hepatocytes, CD-1 mice; type: in vitro ADME; conditions: mouse, hepatocytes (cryopreserved, suspension), CD-1 mice hepatocytes, 0.5×10^6 cells/mL
Procedure: Test Example 7: Metabolic Stability of the Compounds of the Present Invention in Hepatocytes from Mice, Rats, Cynomolgus Macaques, and Humans
To investigate the metabolic stability of the compounds of the present invention in hepatocytes from mice, rats, Cynomolgus macaques, and humans.
Incubations were performed in 96-well plates using an external extraction method. Several 96-well sample precipitation plates, designated T0, T15, T30, T60, T90, TO-MC, T90-MC, and blank matrix, were prepared, respectively. The recovery culture medium and incubation culture medium were removed in advance and placed in a 37° C. water bath for preheating. […]
At the end of the incubation at the corresponding time point, the incubation plates were removed, from which 25 μL of a compound mixture with the cells and a control compound mixture with the cells were removed and added to sample plates containing 125 μL of stop buffer, respectively. […] All samples were mixed uniformly and then analyzed by the LC-MS/MS method.
The concentration of the compound to be tested and the concentration of the control in the sample were semi-quantitatively determined by the liquid chromatography-tandem mass spectrometry (LC-MS/MS) method without a standard curve and quality control sample. […]

[4] = Metabolic stability in kidney S9, CD-1 mice; type: in vitro ADME; conditions: mouse; CD-1 mice kidney S9
Procedure: as §1, §2, §3, §4, §5, §6

Q: What does the source list for `CC[C@H](C)[C@@H]([C@@H](CC(=O)N1CCC[C@H]1[C@H](OC)[C@@H](C)C(=O)N[C@H](C)[C@@H](O)c1ccccc1)OC)N(C)C(=O)[C@@H](NC(=O)[C@H](C(C)C)N(C)C(=O)OCc1ccc(NC(=O)[C@H](CCCNC(N)=O)NC(=O)[C@@H](NC(=O)CCCC(=O)NCCC(=O)N(C)CC(=O)N(C)CC(=O)N(C)CC(=O)N(C)CC(=O)N(C)CC(=O)N(C)CC(=O)N(C)CC(=O)N(C)CC(=O)N(C)CC(=O)N(C)CC(=O)N[C@H]2CCCCNC(=O)C[C@@H](C(=O)N[C@H]3CSCCC(=O)N4CN5CN(C4)C(=O)CCSC(C)(C)[C@H](NC(=O)[C@@H](CC(=O)O)NC(=O)[C@H](Cc4cccc6ccccc46)NC(=O)[C@@H]4CCCN4C3=O)C(=O)N[C@@H](CCSC)C(=O)N[C@@H](CCCCNC(=N)N)C(=O)N[C@@H](CC(=O)O)C(=O)N[C@@H](Cc3c[nH]c4ccccc34)C(=O)N[C@@H](CO)C(=O)N[C@@H]([C@@H](C)O)C(=O)N3CCC[C@H]3C(=O)N3C[C@H](O)C[C@H]3C(=O)N[C@@H](Cc3c[nH]c4ccccc34)C(=O)N[C@H](C(N)=O)CSCCC5=O)NC(=O)CN(C)C2=O)C(C)C)cc1)C(C)C` [Acetate salt of PDC_2] (I: [Sar][Sar][Sar][Sar][Sar][Sar][Sar][Sar][Sar][Sar]K[Sar]DCP[1Nal][dD][Pen]M[hArg]DWSTP[Hyp]WC-NH2 / II: V[Cit][PABC][NMeV]V[Dil][Dolaproine]-X1; lactam I:11-I:13; linker I:14-I:18-I:28 via TATA; linker I:N-II:N via X2)?
A: AUC(0-t) [1]: 4.4 µM·h; C0 [1]: 6.9 µM; clearance [1]: 2.7 mL/min/kg; half-life [1]: 0.7 h; Vd ([1]; read-out: Vdss): 0.1 L/kg; half-life at 1 μM [2]: > 2.42 h; microsomal CLint at 1 μM [2]: < 9.6 µL/min/mg; half-life at 1 μM [3]: > 3.61 h; CLint scaled at 1 μM ([3]; read-out: CLint (liver)): < 75.9 mL/min/kg; half-life at 1 μM [4]: > 2.42 h; microsomal CLint at 1 μM [4]: < 9.6 µL/min/mg
